Results: article PMC5356841 (2016)
Blank lines part the entries; values can stand above or below the binder they belong to.

Biological target: individual catalytic domain of human MT1-MMP (MT1-CAT) (human, UniProt P50281 114-287, biotin (EZ-Link sulfo-NHS-LC-biotin, 1:20 enzyme-biotin molar ratio) in the Fab binding ELISA only; unlabelled in the competition ELISA and the cleavage assays)
Assay: ELISA

Kd: 45 nM
B1: 3E9 Fab (Fab, V domains shown)
VH: EVQLVESGGGLVQPGGSLRLSCAASGFNLYYSSMHWVRQAPGKGLEWVASIYPSYGSTYYADSVKGRFTISADTSKNTAYLQMNSLRAEDTAVYYCARNGRYPGFLKRAHKRLLNFKAYVMDYWGQGTLVTVSS
VL: DIQMTQSPSSLSASVGDRVTITCRASQSVSSAVAWYQQKPGKAPKLLIYSASSLYSGVPSRFSGSRSGTDFTLTISSLQPEDFATYYCQQGSWYLITFGQGTKVEIK

Kd: 21 nM
B2: 2B5 Fab (Fab, V domains shown)
VH: EVQLVESGGGLVQPGGSLRLSCAASGFNLSYSSMHWVRQAPGKGLEWVASIYPYSGYTYYADSVKGRFTISADTSKNTAYLQMNSLRAEDTAVYYCARIGVNAWAVKMSQRMLATRGSGWYVMDYWGQGTLVTVSS
VL: DIQMTQSPSSLSASVGDRVTITCRASQSVSSAVAWYQQKPGKAPKLLIYSASSLYSGVPSRFSGSRSGTDFTLTISSLQPEDFATYYCQQSSSYPYSPITFGQGTKVEIK
